Results published in patent US20150160214A1, “Quantitation of Cellular Adhesion Dynamics Across Immobilized Receptors Under Rheological Shear Flow” (Mayo Foundation for Medical Education and Research, priority 2013, published 2015).

Legend:
[1] = Conformational and thermodynamic classification of A1 domain variants (urea and thermal denaturation, CD, FL, ANS); assay type: physicochemical
Experimental: Circular dichroism measurements were performed on a Model No. 420C circular-dichroism spectrometer (Aviv Biomedical, Inc., Lakewood Township, N.J.). All fluorescence (FL) measurements were performed on a Fluorolog3 spectrofluorometer (HORIBA Jobin-Yvon, Edison, N.J.) equipped with a Model No. LF1-3751 temperature controller (Wavelength Electronics Inc., Bozeman, Mont.). Near- and far-ultraviolet (UV) circular dichroism (CD), intrinsic protein FL, and ANS (8-anilino naphthalene sulfonic acid) […] spectra were determined as described in Tischer et al. (19). Urea denaturation (monitored by far-UV CD) and thermal denaturation (monitored by far-UV CD, intrinsic protein FL, and ANS FL) were performed and analyzed as previously described (19,20). Acrylamide quenching of intrinsic tryptophan fluorescence was performed and analyzed as described in Tischer et al. (19). All spectra were collected at 20° C.
The effects of mutations on the thermodynamic stability of A1 (18) was determined and a framework that incorporated partial unfolding as a means for enhancing the binding affinity of A1 for GPIba was developed (17). Initially, urea-temperature phase diagram method were used for assessing the reversible thermodynamics of unfolding at various temperatures (18,21), and more recently thermal denaturations were used to assess kinetic irreversibility (20,22). The inventor employed these methods using a variety of spectroscopic observables that assess the conformation of these A1 domain variants as a function of temperature and urea.
The observables included the following: (1) Far-UV CD to assess secondary structure content; (2) Near-UV CD to assess tertiary structure content; (3) Intrinsic protein FL to assess solvent exposure of tyrosine and tryptophan residues; (4) Acrylamide quenching of tryptophan FL to assess local solvent exposure of the single tryptophan residue; and (5) Binding of the molten globule indicator-dye, ANS, to assess exposure of hydrophobic surface area.
In total, these studies have provided metrics that are able to classify the conformation of A1 into three types, based on biophysical spectroscopy, as follows:
The type 2B mutations R1306Q and I1309V and the type 2M mutation G1324S have previously been characterized in this conformational class (18). In addition, R1308L and I1372S also belong to this class.
The type 2M mutation A1437T and the type 2B mutation R1341Q belong to this class.
The type 2M mutations F1369I, E1359K, I1425F, S1285F, and R1374H, and the type 2B mutations H1268D, P1337L, V1316M, and V1314D, belong to this class.

[2] = Urea-induced unfolding monitored by CD at 222 nm (Example 1); assay type: physicochemical; conditions: 25° Celsius, native to intermediate transition
Experimental: A1-1261 and A1-1238 were chemically unfolded with urea in order to compare the obtained thermodynamic parameters. The unfolding was monitored at 25° Celsius by CD at λ=222 nm, FIG. 3B. For both proteins, unfolding through an intermediate state was observed, as has been previously reported (Auton:2009). The thermodynamic parameters are illustrated in the insets of FIG. 3B and listed in the Supplement Table 2. Relative to A1-1261, A1-1238 has a marginal loss in unfolding cooperativity (+0.55±0.38 kJ/mol/M) of the transition and the midpoint, cm, of A1-1238 is increased by +0.27±0.04 M. These two contributions to the ΔG^0 cancel each other so that the N-terminal peptide is neither stabilizing nor destabilizing the conformational transition.
Isothermal urea induced unfolding of A1-1261 and A1-1238 at 25° Celsius was monitored via CD at λ=222 nm using a quartz cuvette with a path length of 1 mm and a protein concentration of 10 μM after an overnight equilibration. CD-signal was averaged for 10 min, corrected for the corresponding CD-signal of the buffer and converted into mean molar ellipticities per amino acid residue (θMRW).
Isothermal urea unfolding was analyzed using a three state reversible model (N<->I<->D) as previously described (Auton:2009, Auton:2007). All thermal unfolding transitions were analyzed according to the irreversible models provided in the Supporting Information. […]

## A1-1238: Recombinant human vWF A1 domain, amino acids Q1238-P1471, with N-terminal 6×His-Tag, disulfide intact
[1]
  A1 domain Conformation: N (N = “Native” (native structure with varying thermodynamic stability))
[2]
  Change in midpoint cm relative to A1-1261: +0.27±0.04 M
  Change in unfolding cooperativity (m-value) relative to A1-1261: +0.55±0.38 kJ/mol/M
